Measured values: US20230279104A1 (KOREA RESEARCH INSTITUTE OF BIOSCIENCE AND BIOTECHNOLOGY, published 2023)

Biological target: T1, human transmembrane 4 L6 family member 5 (TM4SF5) on cells (human, UniProt O14894 1-197)
T1 construct: whole, on cells; also called endogenous TM4SF5; TM4SF5 protein
T1 sequence (looked up): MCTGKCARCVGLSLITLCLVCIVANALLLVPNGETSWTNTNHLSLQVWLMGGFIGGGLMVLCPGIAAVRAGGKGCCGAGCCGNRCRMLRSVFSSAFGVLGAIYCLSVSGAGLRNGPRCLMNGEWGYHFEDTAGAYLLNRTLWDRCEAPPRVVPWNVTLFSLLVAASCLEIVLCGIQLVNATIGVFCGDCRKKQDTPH
Assay: flow cytometry, internalization analysis on SNU449Tp cells
Method: Cells were transferred to ice-cold buffer to stop the occurrence of internalization and stained with FITC-conjugated anti-human IgG. PI⁻ cells were analyzed by flow cytometry.

binding result: binds
B1: humanized monoclonal antibody Ab27-hz9 (scFv-hFc form) (antibody, V domains shown)
VH: QVQLVQSGAEVKKPGASVKVSCKASGYTFTDYEMHWVRQAPGQGLEWMGAIDPETGGTAYNQKFKGRVTMTADKSISTAYMELSRLRSDDTAVYYCARPYLGYWGQGTLVTVSS
VL: EIVLTQSPGTLSLSPGERATLSCRSSQSLVHSNGNTYLHWYQQKPGQAPRLLIYKVSNRFSGIPDRFSGSGSGTDFTLTISRLEPEDFAVYYCFQGSHIPLTFGQGTKVEIK
notes: VH and VK genes were synthesized in scFv format and inserted into the pDR-OriP-Fc1 vector, so the molecule tested is an scFv-human Fc fusion; Frameworks are IGHV1-2 and IGKV3-20 with murine residues kept at H71 and H73; also called humanized Ab27
